Results on three substances are retold here after article PMC12017984.

In experiment [1] the target is Recombinant human apolipoprotein A-IV, apoA-IV^T347S, His tag-free (human) (UniProt P06727). As to the kind of experiment: ITC.
In experiment [2] the target is Recombinant human apolipoprotein A-IV, apoA-IV^WT, His tag-free (human) (UniProt P06727). As to the kind of experiment: ITC. For orientation: ITC needs no label: the signal is the heat of the interaction.
For experiment [3], the target named is Recombinant His-tagged human apolipoprotein A-IV, apoA-IV^T347S (human) (UniProt P06727). In words: BLI.

For orientation: Kd means the equilibrium constant for the complex coming apart. As for “Recombinant human apolipoprotein A-IV, apoA-IV^T347S, His tag-free (from UniProt P06727 21-396) (natural protein)”, in experiment [1], the Kd was 102 µM and the dH was -34 kcal/mol.
For the substance “Recombinant human apolipoprotein A-IV, apoA-IV^WT, His tag-free (from UniProt P06727 21-396) (natural protein)”, in experiment [2], the Kd1 amounted to 0.63 µM, the Kd2 was 54 nM, the dH1 came to 2.7 kcal/mol and the dH2 was -27 kcal/mol.
In the case of “Human platelet integrin αIIbβ3 (from UniProt P05106 27-788) (receptor)”, the Kd in experiment [3] amounted to 0.397 µM.
